From patent US20250218531A1 (ABSCI, published 2025)
Changes are numbered by the printed parent chain. “And” between values parts separate entries of the source, which are not always exact repeats. Identical values can stand only once.

B1: Trastuzumab HCDR3 variant ARYPGGGIYDFDP (Fab, V domains shown)
VH: EVQLVESGGGLVQPGGSLRLSCAASGFNIKDTYIHWVRQAPGKGLEWVARIYPTNGYTRYADSVKGRFTISADTSKNTAYLQMNSLRAEDTAVYYCARYPGGGIYDFDPWGQGTLVTVSS
VL: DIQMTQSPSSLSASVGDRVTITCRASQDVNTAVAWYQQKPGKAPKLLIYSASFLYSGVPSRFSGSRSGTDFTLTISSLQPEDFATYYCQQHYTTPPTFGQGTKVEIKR
B2: Trastuzumab HCDR3 variant SYPDFGYYVYFAY (Fab, V domains shown)
VH: EVQLVESGGGLVQPGGSLRLSCAASGFNIKDTYIHWVRQAPGKGLEWVARIYPTNGYTRYADSVKGRFTISADTSKNTAYLQMNSLRAEDTAVYYCSYPDFGYYVYFAYWGQGTLVTVSS
VL: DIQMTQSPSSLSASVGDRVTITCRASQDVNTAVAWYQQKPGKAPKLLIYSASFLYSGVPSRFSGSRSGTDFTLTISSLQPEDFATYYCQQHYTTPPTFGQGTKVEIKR
B3: Trastuzumab HCDR3 variant ATGSGGGGFSYGY (Fab, V domains shown)
VH: B1 VH with R98T, Y99G, P100S, I104G, Y105F, D106S, F107Y, D108G, P109Y
VL: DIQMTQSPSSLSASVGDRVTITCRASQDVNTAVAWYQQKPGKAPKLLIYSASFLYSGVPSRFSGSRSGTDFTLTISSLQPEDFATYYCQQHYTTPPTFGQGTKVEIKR
B4: Trastuzumab HCDR3 variant ARYGRNGSYSYDY (Fab, V domains shown)
VH: B1 VH with P100G, G101R, G102N, I104S, D106S, F107Y, P109Y
VL: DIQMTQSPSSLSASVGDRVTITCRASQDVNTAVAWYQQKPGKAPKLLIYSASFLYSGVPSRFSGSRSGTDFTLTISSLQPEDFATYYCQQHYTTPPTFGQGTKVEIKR
B5: Trastuzumab HCDR3 variant ARYIFGGPYYFDY (Fab, V domains shown)
VH: B1 VH with P100I, G101F, I104P, D106Y, P109Y
VL: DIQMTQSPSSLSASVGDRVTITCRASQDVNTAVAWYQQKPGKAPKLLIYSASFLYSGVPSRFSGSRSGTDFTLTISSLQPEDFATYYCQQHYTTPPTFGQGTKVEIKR
B6: Trastuzumab HCDR3 variant ARYGTGTYYYFLH (Fab, V domains shown)
VH: B1 VH with P100G, G101T, G103T, I104Y, D106Y, D108L, P109H
VL: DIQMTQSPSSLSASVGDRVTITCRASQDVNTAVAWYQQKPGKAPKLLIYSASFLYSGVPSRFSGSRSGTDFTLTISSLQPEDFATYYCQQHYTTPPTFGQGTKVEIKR
B7: Trastuzumab HCDR3 variant ARYLTDADFRLHY (Fab, V domains shown)
VH: B1 VH with P100L, G101T, G102D, G103A, I104D, Y105F, D106R, F107L, D108H, P109Y
VL: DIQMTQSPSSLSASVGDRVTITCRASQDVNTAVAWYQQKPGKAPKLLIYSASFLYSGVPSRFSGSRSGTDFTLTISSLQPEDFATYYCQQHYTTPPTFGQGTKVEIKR
B8: Trastuzumab HCDR3 variant TRYYGDGYYDFDY (Fab, V domains shown)
VH: B1 VH with A97T, P100Y, G102D, I104Y, P109Y
VL: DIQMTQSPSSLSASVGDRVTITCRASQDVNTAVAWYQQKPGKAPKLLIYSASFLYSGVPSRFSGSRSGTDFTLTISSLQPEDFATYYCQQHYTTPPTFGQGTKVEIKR
B9: Trastuzumab HCDR3 variant ARYNPFDGFYFDV (Fab, V domains shown)
VH: B1 VH with P100N, G101P, G102F, G103D, I104G, Y105F, D106Y, P109V
VL: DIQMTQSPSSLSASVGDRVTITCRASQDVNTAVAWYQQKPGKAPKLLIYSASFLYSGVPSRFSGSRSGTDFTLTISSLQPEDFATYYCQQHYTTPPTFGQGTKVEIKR
B10: Trastuzumab HCDR3 variant ARYGGLSYYSFDL (Fab, V domains shown)
VH: B1 VH with P100G, G102L, G103S, I104Y, D106S, P109L
VL: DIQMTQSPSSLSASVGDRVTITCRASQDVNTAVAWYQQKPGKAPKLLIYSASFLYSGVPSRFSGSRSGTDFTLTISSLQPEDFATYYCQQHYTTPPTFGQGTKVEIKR
B11: Trastuzumab HCDR3 variant ARYPNYGFYMFDY (Fab, V domains shown)
VH: B1 VH with G101N, G102Y, I104F, D106M, P109Y
VL: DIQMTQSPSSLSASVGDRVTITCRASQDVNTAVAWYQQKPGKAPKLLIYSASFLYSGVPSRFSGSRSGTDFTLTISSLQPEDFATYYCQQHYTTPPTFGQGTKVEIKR
B12: Trastuzumab HCDR3 variant ASSGRLDLYDFRL (Fab, V domains shown)
VH: B1 VH with R98S, Y99S, P100G, G101R, G102L, G103D, I104L, D108R, P109L
VL: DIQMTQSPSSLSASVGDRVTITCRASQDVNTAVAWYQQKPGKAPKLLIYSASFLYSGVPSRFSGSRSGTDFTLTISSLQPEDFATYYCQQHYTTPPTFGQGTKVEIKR
B13: Trastuzumab HCDR3 variant ARYGYDYYYYFDV (Fab, V domains shown)
VH: B1 VH with P100G, G101Y, G102D, G103Y, I104Y, D106Y, P109V
VL: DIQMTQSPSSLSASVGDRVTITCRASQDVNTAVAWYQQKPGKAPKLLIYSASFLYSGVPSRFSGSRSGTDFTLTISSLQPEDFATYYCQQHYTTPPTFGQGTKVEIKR
B14: Trastuzumab HCDR3 variant ARYGGYGYYWFDY (Fab, V domains shown)
VH: B1 VH with P100G, G102Y, I104Y, D106W, P109Y
VL: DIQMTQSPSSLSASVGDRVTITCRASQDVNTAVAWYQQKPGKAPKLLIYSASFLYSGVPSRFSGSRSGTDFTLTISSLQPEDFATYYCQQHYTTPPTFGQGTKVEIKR
B15: Trastuzumab HCDR3 variant TRYRGAHGYYFDY (Fab, V domains shown)
VH: B1 VH with A97T, P100R, G102A, G103H, I104G, D106Y, P109Y
VL: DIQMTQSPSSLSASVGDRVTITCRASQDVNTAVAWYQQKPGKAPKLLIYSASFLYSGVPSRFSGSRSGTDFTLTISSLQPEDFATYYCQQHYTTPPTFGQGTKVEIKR
B16: Trastuzumab HCDR3 variant ARYYYDYGYYFDV (Fab, V domains shown)
VH: B1 VH with P100Y, G101Y, G102D, G103Y, I104G, D106Y, P109V
VL: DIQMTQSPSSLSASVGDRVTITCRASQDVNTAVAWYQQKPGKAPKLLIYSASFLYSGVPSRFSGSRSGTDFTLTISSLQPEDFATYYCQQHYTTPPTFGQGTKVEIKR
B17: Trastuzumab HCDR3 variant ARYVTANTYSYDP (Fab, V domains shown)
VH: B1 VH with P100V, G101T, G102A, G103N, I104T, D106S, F107Y
VL: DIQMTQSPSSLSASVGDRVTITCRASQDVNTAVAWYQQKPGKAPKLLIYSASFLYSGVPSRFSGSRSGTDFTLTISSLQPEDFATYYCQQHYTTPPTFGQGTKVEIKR
B18: Trastuzumab HCDR3 variant ARDGHYFTYDY (Fab, V domains shown)
VH: EVQLVESGGGLVQPGGSLRLSCAASGFNIKDTYIHWVRQAPGKGLEWVARIYPTNGYTRYADSVKGRFTISADTSKNTAYLQMNSLRAEDTAVYYCARDGHYFTYDYWGQGTLVTVSS
VL: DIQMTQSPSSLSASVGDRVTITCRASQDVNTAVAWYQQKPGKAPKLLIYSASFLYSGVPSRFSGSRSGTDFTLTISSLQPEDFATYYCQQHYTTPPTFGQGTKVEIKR
B19: Trastuzumab HCDR3 variant AAWYSTYYFDY (Fab, V domains shown)
VH: B18 VH with R98A, D99W, G100Y, H101S, Y102T, F103Y, T104Y, Y105F
VL: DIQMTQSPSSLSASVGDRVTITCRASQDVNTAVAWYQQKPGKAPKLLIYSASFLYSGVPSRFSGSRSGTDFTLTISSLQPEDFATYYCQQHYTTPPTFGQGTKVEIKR
B20: Trastuzumab HCDR3 variant AFPWAGHYMER (Fab, V domains shown)
VH: B18 VH with R98F, D99P, G100W, H101A, Y102G, F103H, T104Y, Y105M, D106E, Y107R
VL: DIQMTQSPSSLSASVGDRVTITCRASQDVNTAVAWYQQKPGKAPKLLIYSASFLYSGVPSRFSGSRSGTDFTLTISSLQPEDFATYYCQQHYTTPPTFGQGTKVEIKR
B21: Trastuzumab HCDR3 variant ARFDLVGAFDY (Fab, V domains shown)
VH: B18 VH with D99F, G100D, H101L, Y102V, F103G, T104A, Y105F
VL: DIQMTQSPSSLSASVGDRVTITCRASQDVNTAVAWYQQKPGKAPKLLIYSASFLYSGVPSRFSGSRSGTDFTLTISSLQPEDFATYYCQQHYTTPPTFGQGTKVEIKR
B22: Trastuzumab HCDR3 variant AKYVLVGSYGV (Fab, V domains shown)
VH: B18 VH with R98K, D99Y, G100V, H101L, Y102V, F103G, T104S, D106G, Y107V
VL: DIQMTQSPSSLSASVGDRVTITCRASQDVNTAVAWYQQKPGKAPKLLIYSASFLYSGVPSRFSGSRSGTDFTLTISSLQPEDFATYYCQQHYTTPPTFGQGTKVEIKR
B23: Trastuzumab HCDR3 variant AADGYRGTYSF (Fab, V domains shown)
VH: B18 VH with R98A, H101Y, Y102R, F103G, D106S, Y107F
VL: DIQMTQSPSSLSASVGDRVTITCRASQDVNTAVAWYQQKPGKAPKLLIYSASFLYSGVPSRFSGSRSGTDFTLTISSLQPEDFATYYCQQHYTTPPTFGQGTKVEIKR
B24: Trastuzumab HCDR3 variant AKYVASGYSLA (Fab, V domains shown)
VH: B18 VH with R98K, D99Y, G100V, H101A, Y102S, F103G, T104Y, Y105S, D106L, Y107A
VL: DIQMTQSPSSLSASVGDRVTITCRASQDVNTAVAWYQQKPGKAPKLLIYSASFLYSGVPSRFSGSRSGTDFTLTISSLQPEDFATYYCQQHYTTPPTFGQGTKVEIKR
B25: Trastuzumab HCDR3 variant AINLRGYWMDN (Fab, V domains shown)
VH: B18 VH with R98I, D99N, G100L, H101R, Y102G, F103Y, T104W, Y105M, Y107N
VL: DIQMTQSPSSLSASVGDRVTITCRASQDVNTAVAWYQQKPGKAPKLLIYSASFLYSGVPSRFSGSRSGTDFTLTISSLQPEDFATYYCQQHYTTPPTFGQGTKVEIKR
B26: Trastuzumab HCDR3 variant ARYSYYRYYFE (Fab, V domains shown)
VH: B18 VH with D99Y, G100S, H101Y, F103R, T104Y, D106F, Y107E
VL: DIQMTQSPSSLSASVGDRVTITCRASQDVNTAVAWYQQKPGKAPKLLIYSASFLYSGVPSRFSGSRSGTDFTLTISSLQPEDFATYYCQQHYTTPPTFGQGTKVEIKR

The binders below were run against human epidermal growth factor receptor 2 (HER2) extracellular domain (human, UniProt P04626 23-629) (assay: SPR).

| Binder | Kd | log(KD (M)) |
| --- | --- | --- |
| B1 | 39.9 nM | -7.4 log(M) |
| B2 | 36.8 nM | -7.43 log(M) |
| B3 | 182 nM | -6.74 log(M) |
| B4 | 38.2 nM | -7.42 log(M) |
| B5 | 36 nM | -7.44 log(M) |
| B6 | 42.3 nM and 42.2 nM | -7.37 log(M) |
| B7 | 75.1 nM | -7.12 log(M) |
| B8 | 29.2 nM | -7.53 log(M) |
| B9 | 156 nM | -6.81 log(M) |
| B10 | 58.1 nM | -7.24 log(M) |
| B11 | 33.3 nM | -7.48 log(M) |
| B12 | 171 nM | -6.77 log(M) |
| B13 | 50 nM | -7.3 log(M) |
| B14 | 40 nM | -7.4 log(M) |
| B15 | 35.5 nM | -7.45 log(M) |
| B16 | 30 nM | -7.52 log(M) |
| B17 | 83.6 nM and 83.5 nM | -7.08 log(M) |
| B18 | 45.1 nM | -7.35 log(M) |
| B19 | 49.4 nM | -7.31 log(M) |
| B20 | 95 nM | -7.02 log(M) |
| B21 | 151 nM | -6.82 log(M) |
| B22 | 50.2 nM and 50.1 nM | -7.3 log(M) |
| B23 | 79.2 nM | -7.1 log(M) |
| B24 | 109 nM | -6.96 log(M) |
| B25 | 41.5 nM | -7.38 log(M) |
| B26 | 74.6 nM | -7.13 log(M) |
